Test results published in patent US20250333523A1 (Alector, published 2025).
Where a chain is given by its changes, count along the chain named.

T1: His/Avi-CynoIL18BP (recombinant cynomolgus IL-18BP with His and Avi tags) (cynomolgus monkey)
T1 construct: also called cynomolgus IL-18BP-Avi-His
T1 chain: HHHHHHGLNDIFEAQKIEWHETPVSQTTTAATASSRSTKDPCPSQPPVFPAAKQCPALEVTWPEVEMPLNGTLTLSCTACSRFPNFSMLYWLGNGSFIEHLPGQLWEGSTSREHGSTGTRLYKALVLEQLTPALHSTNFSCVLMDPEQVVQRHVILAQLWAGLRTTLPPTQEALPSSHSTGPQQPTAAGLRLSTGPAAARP

T2: Avi/His-HuIL18BPa (recombinant human IL-18BP isoform A with Avi and poly-His tags) (human, biotinylated with BirA on the Avi tag in some assays)
T2 construct: also called human IL-18BP-Avi-His
T2 chain: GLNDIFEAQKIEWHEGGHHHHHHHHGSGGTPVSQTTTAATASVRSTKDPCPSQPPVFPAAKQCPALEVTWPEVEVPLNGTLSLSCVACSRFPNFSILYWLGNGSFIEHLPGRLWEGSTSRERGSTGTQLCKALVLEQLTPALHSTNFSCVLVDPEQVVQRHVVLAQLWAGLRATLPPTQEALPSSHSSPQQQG

T3: mouse IL-18BPd-human IgG Fc (R&D Systems, Cat. #122-BP-100) (mouse; human, UniProt Q9Z0M9 29-193)
T3 construct: Bought; also called mouse IL-18BPd-Fc Chimera
T3 sequence (looked up): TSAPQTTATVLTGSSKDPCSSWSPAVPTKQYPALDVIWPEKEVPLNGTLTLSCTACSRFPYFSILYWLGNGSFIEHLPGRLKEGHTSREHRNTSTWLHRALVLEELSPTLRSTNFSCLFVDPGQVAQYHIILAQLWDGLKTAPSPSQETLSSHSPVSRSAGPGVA

T4: Avi/HisMsIL18BPd (recombinant mouse IL-18BP with Avi and poly-His tags) (mouse, biotinylated with BirA on the Avi tag in some assays)
T4 chain: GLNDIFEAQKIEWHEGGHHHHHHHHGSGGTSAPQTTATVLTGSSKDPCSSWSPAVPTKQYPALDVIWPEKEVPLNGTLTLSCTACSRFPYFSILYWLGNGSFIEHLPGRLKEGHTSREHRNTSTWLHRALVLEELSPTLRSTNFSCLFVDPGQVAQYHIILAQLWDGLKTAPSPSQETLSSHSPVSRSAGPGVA

B1: anti-IL18BP antibody BP-01 (antibody, human IgG1, V domains shown)
VH: QVQLQQSGPEVVRPGVSVKISCKGSGYTFTDFAMYWVKQSHAKSLEWIGVISTDNGDTSYNQKFKGKATMTVDKSSSTAYMELDRLTSEDSAIYYCARSRGPFDYWGQGTALTVSS
VL: DIVMTQSHKFKSTSVGDRVNITCKASQDVGTAVAWYQQKPGQSPKLLIYWASTRHIGVPDRFTGSGSGTDFTLTIRNVQSEDLADYFCQRYSSYPWTFGGGTKLEIK
B2: anti-IL18BP antibody BP-09 (antibody, human IgG1, V domains shown)
VH: QVQLQQSGAELVRPGASVTLSCKASGYRFTDYAMHWVKQTPVHGLQWIGIIDPETGDTAFNQKFKGKATLTADKSSSTAYMELSSLTSEDSAVYYCTRPRGAMDYWGQGTSVTVSS
VL: B1 VL with K11M, V15G, N20S, Q42I, I56T, T74A, R76S, R90Q, Y94H, W96Y
B3: anti-IL18BP antibody BP-03 (antibody, human IgG1, V domains shown)
VH: EVQLQQSGPELVKPGASVKIPCKASGYTFTDYNMDWVKQSHGKSLEWIGNINTDNGGTVYNQKFKGKATLTVDQSSSTAYMELRSLTSEDTAVYYCARSDTTVVASRYYAMDYWGQGTSVTVSS
VL: DIVLTQSPASLAMSLGKRATISCRASESVSIIGTNLIHWYQQKPGQPPKLLIYHASNLETGVPARFSGSGSRTDFTLTIDPVEEDDVAIYYCLQSRKIPPTFGGGTKLEIK
B4: anti-IL18BP antibody BP-07 (antibody, human IgG1, V domains shown)
VH: EVQLQQSGPELVKPGASVKISCRASGFTITDYNMDWVRQSHGKSLEWIGNINLNNGGSIYNQKFKGKATLTIDKSSSTAYMELRSLTSEDTAVYYCARSDTTVVASRYYAMDYWGQGTSVTVSS
VL: B3 VL with A64V
B5: anti-IL-18BP antibody variant BP-04.15 (antibody, V domains shown)
VH: QVQLVQSGAEVKKPGASVKVSCKASGYTFTDYDMHWVRQAPGQGLEWMGIISTYYGDVSYAQKFQGRVTMTRDKSTSTVYMELSSLRSEDTAVYYCARSGTYNYGTRESHPLDYWGQGTLVTVSS
VL: DIQMTQSPSSVSASVGDRVTITCRASDNVYSNLAWYQQKPGKAPKLLIYGAISLADGVPSRFSGSGSGTDFTLTISSLQPEDFATYYCQHFWGNPYTFGQGTKLEIK
B6: anti-IL-18BP antibody variant BP-04.29 (antibody, V domains shown)
VH: B5 VH with P111A
VL: B5 VL
B7: anti-IL-18BP antibody variant BP-04.25 (antibody, V domains shown)
VH: B5 VH with I51Y, P111A
VL: B5 VL
B8: anti-IL-18BP antibody variant BP-04.28 (antibody, V domains shown)
VH: B5 VH with N103Y
VL: B5 VL
B9: anti-IL18BP antibody BP-14 (antibody, human IgG1, V domains shown)
VH: QVQLVQSGAEVKKPGASVKVSCKASGYTFTGYYMHWVRQAPGQGLEWMGIINPRGGSTSHAQKFQGRVTMTRDTSTSTVYMELSSLRSEDTAVYYCARGLELHWFDPWGQGTLVTVSS
VL: DIQMTQSPSSLSASVGDRVTITCRASQNIRSWLAWYQQKPGKAPKLLIYAASSLQSGVPSRFSGSGSGTDFTLTISSLQPEDFATYYCQQANSFPYTFGQGTKLEIK

Biological target: T1, His/Avi-CynoIL18BP (recombinant …)
Experiment: blocking ELISA, competitor rhesus IL-18

Binder	blocking ELISA signal normalized to isotype control (=1)
B1	0.795 ratio to isotype control
B2	0.315 ratio to isotype control
B3	0.996 ratio to isotype control
B4	0.999 ratio to isotype control

Biological target: T1, His/Avi-CynoIL18BP (recombinant …)
Experiment: SPR Biacore T200, IgG captured on Protein A/G

Binder	Kd [nM]	koff [s⁻¹]	kon [M⁻¹ s⁻¹]
B5	20	0.004	200000
B6	32	0.011	340000
B7	100	0.022	220000
B8	7.2	0.0023	330000

Biological target: T2, Avi/His-HuIL18BPa (recombinant human …)
Experiment: SPR Biacore T200, IgG captured on Protein A/G

Binder	Kd [nM]	koff [s⁻¹]	kon [M⁻¹ s⁻¹]
B5	12	0.0028	240000
B6	16	0.0062	390000
B7	21	0.0061	300000
B8	4.7	0.0019	410000

biological target: T3, mouse IL-18BPd-human IgG Fc (R&D …); experiment: blocking ELISA, competitor mouse IL-18

Binder	blocking ELISA signal normalized to isotype control (=1)
B9	0.202 ratio to isotype control
B1	0.316 ratio to isotype control
B3	0.157 ratio to isotype control
B4	0.156 ratio to isotype control

Biological target: T2, Avi/His-HuIL18BPa (recombinant human …)
Experiment: blocking ELISA, competitor human IL-18

Binder	blocking ELISA signal normalized to isotype control (=1)
B9	0.069 ratio to isotype control
B1	0.076 ratio to isotype control
B3	0.151 ratio to isotype control
B4	0.147 ratio to isotype control

Biological target: T4, Avi/HisMsIL18BPd (recombinant mouse …)
Experiment: cell-based or functional assay

Binder	EC50 of IFNγ release, mouse splenocytes [nM]	Fold change of IFNγ at 10 µg/ml vs baseline, mouse splenocytes [fold]
B9	2.93	3.49
B1	8.36	1.65
B2	426	2.88
B3	4.49	5.93
B4	8.16	2.78

Biological target: T2, Avi/His-HuIL18BPa (recombinant human …)
Experiment: cell-based or functional assay

Binder	EC50 of IFNγ release, human PBMC [nM]	Fold change of IFNγ at 10 µg/ml vs baseline, human PBMC [fold]
B9	3.47	8.86
B1	0.75	14.9
B2	1.41	15.4
B3	1.14	11.3
B4	1.66	16.6

Biological target: T1, His/Avi-CynoIL18BP (recombinant …)
Experiment: SPR Carterra LSA, IgG immobilized

Binder	Kd [nM]
B1	12.1
B2	1.4
B3	2.34

Biological target: T2, Avi/His-HuIL18BPa (recombinant human …)
Experiment: SPR Carterra LSA, IgG immobilized

Binder	Kd [nM]
B9	3.2
B2	2.01
B3	4.1
B4	2.7

Biological target: T1, His/Avi-CynoIL18BP (recombinant …)
Experiment: cell-based or functional assay

Binder	% of Max Gamma, human NK cells [%]	EC50 of IFNγ release, human NK cells [nM]
B1	52.2	12.5
B2	46.6	51.7

Biological target: T4, Avi/HisMsIL18BPd (recombinant mouse …)
Experiment: cell-based or functional assay
Remark: another data set of the same source

Binder	EC50 of IFNγ release, mouse splenocytes [nM]
B5	43.1
B6	45.5
B7	28.9
B8	134

Biological target: T2, Avi/His-HuIL18BPa (recombinant human …)
Experiment: cell-based or functional assay
Remark: another data set of the same source

Binder	EC50 of IFNγ release, human PBMCs [nM]
B5	12.3
B6	3.53
B7	5.05
B8	71.2

Biological target: T4, Avi/HisMsIL18BPd (recombinant mouse …)
Experiment: ELISA, coated IL-18BP

Binder	ELISA binding ratio (fold-change over background) [fold over background]
B9	45.1
B1	36.7
B2	32.7
B3	41.6
B4	39.3

Biological target: T1, His/Avi-CynoIL18BP (recombinant …)
Experiment: ELISA, coated IL-18BP

Binder	ELISA binding ratio (fold-change over background) [fold over background]
B1	47.4
B2	44.9
B3	36.5
B4	31.1

Biological target: T2, Avi/His-HuIL18BPa (recombinant human …)
Experiment: ELISA, coated IL-18BP

Binder	ELISA binding ratio (fold-change over background) [fold over background]
B9	36.3
B1	40.7
B2	44.4
B3	41.9
B4	38.5
